Assay results published in the supplement of paper PMC7877785.
± gives the uncertainty stated by the source.

Assay: self-splicing fitness, log relative to wild type (ln ratio); higher = more splicing; Tetrahymena group I intron in knt gene, E. coli kanamycin selection, DiMSum; sequences stand for … in CUCUCU…GGAGGGAAAAGUUAUCAGGCAUGCACCUGGUAGCUAGUCUUUAAACCAAUAGAUUGCAUCGGUUUAAAAGGCAAGACCGUCAAAUUGCGGGAAAGGGGUCAACAGCCGUUCAGUACCAAGUCUCAGGGGAAACUUUGAGAUGGCCUUGCAAAGGGUAUGGUAAUAAGCUGACGGACAUGGUCCUAACCACGCAGCCAAGUCCUAAGUCAACAGAUCUUCUGUUGAUAUGGAUGCAGUUCACAGACUAAAUGUCGGUCGGGGAAGAUGUAUUCUUCUCAUAAGAUAUAGUCGGACCUCUCCUUAAUGGGAGCUAGCGGAUGAAGUGAUGCAACACUGGAGCCGCUGGGAACUAAUUUGUAUGCGAAAGUAUAUUGAUUAGUUUUGGAGUACUCGUGGUCG
Summary of the method: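 Six replicate transformations of E. coli BL21(DE3) with a pET-22b(+) library were grown overnight at 37°C or 30°C. The library randomised all eight P1ex-region intron nucleotides, the intron lying in the knt kanamycin-resistance gene, and plates were LB agar with or without 25 μg/mL kanamycin plus 100 μg/mL carbenicillin, 50 μM IPTG and 0.2% rhamnose. Pooled colonies were amplicon-sequenced on an Illumina HiSeq 2500, and fitness is the DiMSum error-weighted combination of wild-type-normalised replicate fold changes, kanamycin versus none.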

| Sequence | self-splicing fitness (ln) (30 °C) | self-splicing fitness (ln) (37 °C) |
| --- | --- | --- |
| CUGGAGCAAUAUUACGACGG | -3.79 ± 0.38 | -3.09 ± 0.43 |
| CUGGAGCAAUAUUACGAGUU | -2.26 ± 0.13 | -3.51 ± 0.33 |
| CUGGAGCAAUAUUACGAUAU | -2.36 ± 0.35 | -2.54 ± 0.41 |
| CUGGAGCAAUAUUACGCAAG | -2.82 ± 0.21 | -2.08 ± 0.27 |
| CUGGAGCAAUAUUACGCAUG | -2.07 ± 0.13 | -0.898 ± 0.17 |
| CUGGAGCAAUAUUACGCCGA | -1.18 ± 0.34 | – |
| CUGGAGCAAUAUUACGCGCG | -2.2 ± 0.14 | -0.917 ± 0.13 |
| CUGGAGCAAUAUUACGCGUC | -3.41 ± 0.27 | -1.76 ± 0.27 |
| CUGGAGCAAUAUUACGCUCA | -3.4 ± 0.36 | -0.5 ± 0.3 |
| CUGGAGCAAUAUUACGCUUU | -3.02 ± 0.32 | -3.22 ± 0.47 |
| CUGGAGCAAUAUUACGGAAC | -3.5 ± 0.33 | -2.64 ± 0.3 |
| CUGGAGCAAUAUUACGGACU | -3.12 ± 0.25 | -2.07 ± 0.46 |
| CUGGAGCAAUAUUACGGCAU | -3.26 ± 0.47 | – |
| CUGGAGCAAUAUUACGGCUA | – | -1.11 ± 0.47 |
| CUGGAGCAAUAUUACGGGAG | -3.19 ± 0.28 | -0.913 ± 0.19 |
| CUGGAGCAAUAUUACGGGCA | -1.06 ± 0.38 | – |
| CUGGAGCAAUAUUACGGUGC | -3.49 ± 0.48 | – |
| CUGGAGCAAUAUUACGUAAC | -3.25 ± 0.32 | -1.86 ± 0.3 |
| CUGGAGCAAUAUUACGUGCU | -2.27 ± 0.23 | -2.91 ± 0.34 |
| CUGUAGCAAUAUUACGAAAG | -1.61 ± 0.1 | -0.788 ± 0.14 |
| CUGUAGCAAUAUUACGACAG | -4.61 ± 0.3 | -1.97 ± 0.21 |
| CUGUAGCAAUAUUACGACGU | -1.13 ± 0.21 | -1.54 ± 0.26 |
| CUGUAGCAAUAUUACGAGGA | -2.78 ± 0.41 | -1.62 ± 0.32 |
| CUGUAGCAAUAUUACGCAAU | -2.63 ± 0.36 | -1.99 ± 0.25 |
| CUGUAGCAAUAUUACGCAGG | -3.56 ± 0.27 | -2.73 ± 0.2 |
| CUGUAGCAAUAUUACGCGAA | -1.86 ± 0.35 | -2.26 ± 0.45 |

| Sequence | self-splicing fitness (ln) (30 °C) | self-splicing fitness (ln) (37 °C) |
| --- | --- | --- |
| CUGUAGCAAUAUUACGCUCG | -1 ± 0.18 | -0.773 ± 0.25 |
| CUGUAGCAAUAUUACGCUUA | -3.24 ± 0.37 | -3.24 ± 0.43 |
| CUGUAGCAAUAUUACGGGUU | -3.94 ± 0.23 | -3.13 ± 0.31 |
| CUGUAGCAAUAUUACGGUCU | -3.53 ± 0.14 | -2.96 ± 0.21 |
| CUGUAGCAAUAUUACGGUUU | -4.11 ± 0.26 | -2.69 ± 0.32 |
| CUGUAGCAAUAUUACGUCCU | -3.57 ± 0.4 | – |
| CUGUAGCAAUAUUACGUGGG | -3.78 ± 0.22 | -2.05 ± 0.18 |
| CUGUAGCAAUAUUACGUUAC | -2.77 ± 0.34 | -1.72 ± 0.32 |
| CUUAAGCAAUAUUACGAAGG | -2.89 ± 0.17 | -1.54 ± 0.24 |
| CUUAAGCAAUAUUACGACAU | -3.434 ± 0.023 | -2.11 ± 0.036 |
| CUUAAGCAAUAUUACGAUCC | -3.31 ± 0.44 | – |
| CUUAAGCAAUAUUACGAUCG | -0.53 ± 0.082 | 0.874 ± 0.12 |
| CUUAAGCAAUAUUACGAUGC | -3.42 ± 0.35 | -2.1 ± 0.33 |
| CUUAAGCAAUAUUACGAUGG | -1.17 ± 0.082 | -0.43 ± 0.11 |
| CUUAAGCAAUAUUACGAUUA | -3.71 ± 0.26 | -2.72 ± 0.21 |
| CUUAAGCAAUAUUACGCAAU | – | -2.62 ± 0.44 |
| CUUAAGCAAUAUUACGCACC | -1.86 ± 0.45 | – |
| CUUAAGCAAUAUUACGCCCU | -3.17 ± 0.32 | -1.96 ± 0.43 |
| CUUAAGCAAUAUUACGCCUA | -1.91 ± 0.38 | – |
| CUUAAGCAAUAUUACGCCUU | – | -2.63 ± 0.39 |
| CUUAAGCAAUAUUACGCGUC | -2.08 ± 0.12 | -3.25 ± 0.23 |
| CUUAAGCAAUAUUACGCUAA | -3.21 ± 0.39 | -1.58 ± 0.3 |
| CUUAAGCAAUAUUACGCUAC | -4.22 ± 0.42 | -2.34 ± 0.36 |
| CUUAAGCAAUAUUACGCUGG | -4.54 ± 0.32 | -2.64 ± 0.18 |
| CUUAAGCAAUAUUACGGAAG | -2.03 ± 0.17 | -0.419 ± 0.14 |
| CUUAAGCAAUAUUACGGAAU | -3.96 ± 0.31 | -2.29 ± 0.31 |

| Sequence | self-splicing fitness (ln) (30 °C) | self-splicing fitness (ln) (37 °C) |
| --- | --- | --- |
| CUUAAGCAAUAUUACGGAUU | -3.94 ± 0.32 | -3.41 ± 0.47 |
| CUUAAGCAAUAUUACGGCCC | -2.8 ± 0.4 | – |
| CUUAAGCAAUAUUACGGGGG | -3.65 ± 0.2 | -1.26 ± 0.23 |
| CUUAAGCAAUAUUACGGGUU | -2.65 ± 0.19 | -3.2 ± 0.27 |
| CUUAAGCAAUAUUACGGUAA | – | -3.38 ± 0.37 |
| CUUAAGCAAUAUUACGGUAU | -4.7 ± 0.34 | -2.35 ± 0.22 |
| CUUAAGCAAUAUUACGUAAC | -3.05 ± 0.24 | -1.26 ± 0.2 |
| CUUAAGCAAUAUUACGUAGA | -3.6 ± 0.22 | -2.82 ± 0.34 |
| CUUAAGCAAUAUUACGUAGC | -3.71 ± 0.23 | – |
| CUUAAGCAAUAUUACGUGAC | -1.91 ± 0.13 | -2.06 ± 0.14 |
| CUUAAGCAAUAUUACGUGCC | -4.6 ± 0.38 | -1.53 ± 0.18 |
| CUUCAGCAAUAUUACGAACA | -0.812 ± 0.18 | -1.3 ± 0.21 |
| CUUCAGCAAUAUUACGAAUG | -0.722 ± 0.065 | -0.456 ± 0.093 |
| CUUCAGCAAUAUUACGACGC | -0.697 ± 0.26 | 0.21 ± 0.28 |
| CUUCAGCAAUAUUACGAGCU | -3.82 ± 0.29 | -3.41 ± 0.33 |
| CUUCAGCAAUAUUACGAGUC | – | -2.56 ± 0.18 |
| CUUCAGCAAUAUUACGAUGU | -3.67 ± 0.21 | -2.07 ± 0.2 |
| CUUCAGCAAUAUUACGCGAC | -2.88 ± 0.31 | -1.75 ± 0.41 |
| CUUCAGCAAUAUUACGCGGG | -3.7 ± 0.19 | -2.61 ± 0.2 |
| CUUCAGCAAUAUUACGGAAC | -2.45 ± 0.16 | -2.12 ± 0.33 |
| CUUCAGCAAUAUUACGGCGG | -2.02 ± 0.27 | -1.25 ± 0.18 |
| CUUCAGCAAUAUUACGGGCC | -1.78 ± 0.22 | – |
| CUUCAGCAAUAUUACGGGCG | -0.584 ± 0.076 | -0.302 ± 0.098 |
| CUUCAGCAAUAUUACGGUGU | -4.48 ± 0.21 | -3.73 ± 0.25 |
| CUUCAGCAAUAUUACGUAUU | -3.18 ± 0.17 | -2.37 ± 0.2 |
| CUUCAGCAAUAUUACGUCAG | -0.735 ± 0.054 | -0.0836 ± 0.082 |

| Sequence | self-splicing fitness (ln) (30 °C) | self-splicing fitness (ln) (37 °C) |
| --- | --- | --- |
| CUUCAGCAAUAUUACGUCAU | -3.34 ± 0.21 | -3.76 ± 0.34 |
| CUUCAGCAAUAUUACGUGUU | -3.34 ± 0.19 | -2.72 ± 0.24 |
| CUUCAGCAAUAUUACGUUCU | -4.03 ± 0.33 | -2.26 ± 0.2 |
| CUUGAGCAAUAUUACGACAU | -3.581 ± 0.028 | -2.55 ± 0.041 |
| CUUGAGCAAUAUUACGAGCG | -2.14 ± 0.1 | -0.889 ± 0.09 |
| CUUGAGCAAUAUUACGAGGC | -2.91 ± 0.26 | -2.89 ± 0.27 |
| CUUGAGCAAUAUUACGAGUA | -2.07 ± 0.37 | -2.52 ± 0.32 |
| CUUGAGCAAUAUUACGCACG | -3.3 ± 0.44 | -2.48 ± 0.43 |
| CUUGAGCAAUAUUACGCAUC | -3.14 ± 0.4 | -2.75 ± 0.44 |
| CUUGAGCAAUAUUACGCCCG | -2.41 ± 0.46 | – |
| CUUGAGCAAUAUUACGCGCG | -3.32 ± 0.29 | -1.63 ± 0.25 |
| CUUGAGCAAUAUUACGCUGA | -2.33 ± 0.25 | -1.9 ± 0.23 |
| CUUGAGCAAUAUUACGGCUC | – | -1.67 ± 0.36 |
| CUUGAGCAAUAUUACGGCUG | -1.55 ± 0.14 | -1.46 ± 0.19 |
| CUUGAGCAAUAUUACGGGAU | -2.99 ± 0.32 | -2.63 ± 0.31 |
| CUUGAGCAAUAUUACGGGUG | -1.24 ± 0.072 | -0.485 ± 0.078 |
| CUUGAGCAAUAUUACGGUGA | -3.34 ± 0.27 | -2 ± 0.25 |
| CUUGAGCAAUAUUACGUAAA | – | -0.936 ± 0.2 |
| CUUGAGCAAUAUUACGUACA | -1.97 ± 0.4 | -1.77 ± 0.38 |
| CUUGAGCAAUAUUACGUCAC | -3.37 ± 0.23 | -2.73 ± 0.31 |
| CUUGAGCAAUAUUACGUUUA | -3.56 ± 0.26 | -2.88 ± 0.28 |
| CUUUAGCAAUAUUACGAAGA | – | -2.43 ± 0.34 |
| CUUUAGCAAUAUUACGAGGC | -2.85 ± 0.41 | -1.36 ± 0.26 |
